# Target: FLAG-tagged a3 isoform of the V-ATPase a subunit (mouse) (UniProt Q9JHF5)
# Test: co-immunoprecipitation (anti-FLAG IP, anti-V5 Western blot)
# Conditions: HEK293T cells; intensity of V5-fused GTP-binding protein co-precipitated with a3 normalised to that of V5-Rab7
# UniProt Q9JHF5, sequence (Q9JHF5 entry or part of it): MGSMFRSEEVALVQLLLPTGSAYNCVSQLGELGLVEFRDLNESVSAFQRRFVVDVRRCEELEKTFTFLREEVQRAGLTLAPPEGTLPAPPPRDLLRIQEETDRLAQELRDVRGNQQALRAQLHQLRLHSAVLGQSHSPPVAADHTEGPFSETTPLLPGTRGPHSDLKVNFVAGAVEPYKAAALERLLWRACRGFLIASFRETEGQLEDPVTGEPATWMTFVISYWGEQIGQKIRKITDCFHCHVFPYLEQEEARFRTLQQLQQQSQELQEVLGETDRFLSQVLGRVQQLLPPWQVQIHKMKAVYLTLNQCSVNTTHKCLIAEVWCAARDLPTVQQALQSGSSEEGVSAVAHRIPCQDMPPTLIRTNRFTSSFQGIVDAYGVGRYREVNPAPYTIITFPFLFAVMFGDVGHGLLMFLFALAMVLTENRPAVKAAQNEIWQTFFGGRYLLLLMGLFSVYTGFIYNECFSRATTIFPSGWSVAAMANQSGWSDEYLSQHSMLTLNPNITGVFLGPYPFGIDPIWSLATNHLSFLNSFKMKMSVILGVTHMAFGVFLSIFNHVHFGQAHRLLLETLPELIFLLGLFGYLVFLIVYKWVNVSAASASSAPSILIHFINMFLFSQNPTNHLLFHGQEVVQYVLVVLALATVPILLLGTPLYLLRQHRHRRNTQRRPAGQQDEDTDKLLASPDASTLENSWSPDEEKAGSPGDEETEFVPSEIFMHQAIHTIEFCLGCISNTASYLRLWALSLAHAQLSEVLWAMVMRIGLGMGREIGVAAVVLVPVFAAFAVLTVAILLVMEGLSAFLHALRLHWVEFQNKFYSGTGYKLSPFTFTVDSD
row,Substance,other: relative signal intensity
1,H-Ras W C (substitution not printed),< 0.1
2,H-Ras W D (substitution not printed),< 0.1
3,Ran W C (substitution not printed),< 0.1
4,Ran W D (substitution not printed),< 0.1

# — article PMC5928161
